Experimental data reported in patent US20210138031A1 (TRUSTEES OF TUFTS COLLEGE, published 2021).

B1: Dual Terminator of Active Complement (DTAC) (other)
chain: GGDCGLPPDVPNAQPALEGRTSFPEDTVITYKCEESFVKIPGEKDSVICLKGSQWSDIEEFCNRSCEVPTRLNSASLKQPYITQNYFPVGTVVEYECRPGYRREPSLSPKLTCLQNLKWSTAVEFCKKKSCPNPGEIRNGQIDVPGGILFGATISFSCNTGYKLFGSTSSFCLISGSSVQWSDPLPECREIYCPAPPQIDNGIIQGERDHYGYRQSVTYACNKGFTMIGEHSIYCTVNNDEGEWSGPPPECRGKSLTSKVPPTVQKPTTVNVPTTEVSPTSQKTTTKTTTPNAQATRSTPVSRTTKHFHETTPNKGSGTTSGTTGGGGGLQCYNCPNPTADCKTAVNCSSDFDACLITKAGLQVYNKCWKFEHCNFNDVTTRLRENELTYYCCKKDLCNFNEQLE
modifications: glycosylated (about 76 kDa band observed)
B2: Soluble Active Complement Terminator (SACT) (other)
chain: GCEEPPTFEAMELIGKPKPYYEIGERVDYKCKKGYFYIPPLATHTICDRNHTWLPVSDDACYRETCPYIRDPLNGQAVPANGTYEFGYQMHFICNEGYYLIGEEILYCELKGSVAIWSGKPPICEKVLCTPPPKIKNGKHTFSEVEVFEYLDAVTYSCDPAPGPDPFSLIGESTIYCGDNSVWSRAAPECKVVKCRFPVVENGKQISGFGKKFYYKATVMFECDKGFYLDGSDTIVCDSNSTWDPPVPKCLKVGGGGGGDCGLPPDVPNAQPALEGRTSFPEDTVITYKCEESFVKIPGEKDSVICLKGSQWSDIEEFCNRSCEVPTRLNSASLKQPYITQNYFPVGTVVEYECRPGYRREPSLSPKLTCLQNLKWSTAVEFCKKKSCPNPGEIRNGQIDVPGGILFGATISFSCNTGYKLFGSTSSFCLISGSSVQWSDPLPECREIYCPAPPQIDNGIIQGERDHYGYRQSVTYACNKGFTMIGEHSIYCTVNNDEGEWSGPPPECRGKSLTSKVPPTVQKPTTVNVPTTEVSPTSQKTTTKTTTPNAQATRSTPVSRTTKHFHETTPNKGSGTTSGTTGGGGGLQCYNCPNPTADCKTAVNCSSDFDACLITKAGLQVYNKCWKFEHCNFNDVTTRLRENELTYYCCKKDLCNFNEQLE
modifications: N- and O-linked glycosylation (about 110 kDa band observed)
B3: soluble terminator of activated complement (STAC) (other)
chain: LQCYNCPNPTADCKTAVNCSSDFDACLITKAGLQVYNKCWKFEHCNFNDVTTRLRENELTYYCCKKDLCNFNEQLEGGGGGCEEPPTFEAMELIGKPKPYYEIGERVDYKCKKGYFYIPPLATHTICDRNHTWLPVSDDACYRETCPYIRDPLNGQAVPANGTYEFGYQMHFICNEGYYLIGEEILYCELKGSVAIWSGKPPICEKVLCTPPPKIKNGKHTFSEVEVFEYLDAVTYSCDPAPGPDPFSLIGESTIYCGDNSVWSRAAPECKVVKCRFPVVENGKQISGFGKKFYYKATVMFECDKGFYLDGSDTIVCDSNSTWDPPVPKCLKVGGGGGGDCGLPPDVPNAQPALEGRTSFPEDTVITYKCEESFVKIPGEKDSVICLKGSQWSDIEEFCNRSCEVPTRLNSASLKQPYITQNYFPVGTVVEYECRPGYRREPSLSPKLTCLQNLKWSTAVEFCKKKSCPNPGEIRNGQIDVPGGILFGATISFSCNTGYKLFGSTSSFCLISGSSVQWSDPLPECREIYCPAPPQIDNGIIQGERDHYGYRQSVTYACNKGFTMIGEHSIYCTVNNDEGEWSGPPPECRGKSLTSKVPPTVQKPTTVNVPTTEVSPTSQKTTTKTTTPNAQATRSTPVSRTTKHFHETTPNKGSGTTSGTT

Tests used:
C9 = C9 (UniProt P02748 22-559); assay: cell-based or functional assay
C3b = C3b (human, UniProt P01024 749-1663; P01024 23-667); assay: cell-based or functional assay
Sequence of C3b (P01024 749-1663 limits assumed, chain 1 of 2): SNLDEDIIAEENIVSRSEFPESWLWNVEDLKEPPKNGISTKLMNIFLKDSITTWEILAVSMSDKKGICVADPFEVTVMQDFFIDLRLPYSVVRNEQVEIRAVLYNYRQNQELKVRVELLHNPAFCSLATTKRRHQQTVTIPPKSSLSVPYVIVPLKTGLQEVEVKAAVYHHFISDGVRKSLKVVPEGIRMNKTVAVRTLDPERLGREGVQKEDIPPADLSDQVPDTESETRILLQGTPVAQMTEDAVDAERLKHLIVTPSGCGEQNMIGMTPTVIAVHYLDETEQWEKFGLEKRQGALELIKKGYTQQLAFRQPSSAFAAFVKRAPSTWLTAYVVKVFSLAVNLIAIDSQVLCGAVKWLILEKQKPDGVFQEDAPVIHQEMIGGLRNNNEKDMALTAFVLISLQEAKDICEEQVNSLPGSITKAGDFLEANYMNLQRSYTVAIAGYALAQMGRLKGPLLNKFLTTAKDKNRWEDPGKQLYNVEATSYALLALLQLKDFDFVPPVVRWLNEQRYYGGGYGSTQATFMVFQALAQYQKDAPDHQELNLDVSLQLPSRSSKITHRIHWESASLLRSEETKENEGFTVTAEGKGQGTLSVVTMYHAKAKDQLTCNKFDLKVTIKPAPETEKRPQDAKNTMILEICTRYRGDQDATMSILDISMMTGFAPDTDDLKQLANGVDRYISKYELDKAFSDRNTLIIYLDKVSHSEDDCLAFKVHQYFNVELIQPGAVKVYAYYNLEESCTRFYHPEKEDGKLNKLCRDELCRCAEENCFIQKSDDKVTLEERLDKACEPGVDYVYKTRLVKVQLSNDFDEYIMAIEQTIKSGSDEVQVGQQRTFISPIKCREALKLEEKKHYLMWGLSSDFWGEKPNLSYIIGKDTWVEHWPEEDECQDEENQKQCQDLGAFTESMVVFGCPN
Sequence of C3b (P01024 23-667 limits assumed, chain 2 of 2): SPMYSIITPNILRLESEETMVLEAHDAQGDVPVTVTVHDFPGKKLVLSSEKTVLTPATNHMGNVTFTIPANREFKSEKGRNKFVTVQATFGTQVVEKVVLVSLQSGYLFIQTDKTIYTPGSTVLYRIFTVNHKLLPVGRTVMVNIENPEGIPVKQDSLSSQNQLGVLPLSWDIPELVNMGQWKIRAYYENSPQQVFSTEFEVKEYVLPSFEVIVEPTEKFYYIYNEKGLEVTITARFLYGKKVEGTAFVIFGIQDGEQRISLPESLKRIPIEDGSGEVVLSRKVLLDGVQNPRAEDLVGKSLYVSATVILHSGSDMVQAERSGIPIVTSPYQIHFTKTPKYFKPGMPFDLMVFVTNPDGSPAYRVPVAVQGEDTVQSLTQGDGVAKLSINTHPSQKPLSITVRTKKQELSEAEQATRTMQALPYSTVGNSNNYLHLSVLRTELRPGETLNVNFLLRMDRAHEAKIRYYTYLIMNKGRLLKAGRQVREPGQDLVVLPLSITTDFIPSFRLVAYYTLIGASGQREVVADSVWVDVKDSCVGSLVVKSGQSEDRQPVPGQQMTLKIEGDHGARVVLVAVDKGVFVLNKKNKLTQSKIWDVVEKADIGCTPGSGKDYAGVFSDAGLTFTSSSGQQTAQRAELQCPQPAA

Sequence of C9 (P02748 22-559 limits assumed): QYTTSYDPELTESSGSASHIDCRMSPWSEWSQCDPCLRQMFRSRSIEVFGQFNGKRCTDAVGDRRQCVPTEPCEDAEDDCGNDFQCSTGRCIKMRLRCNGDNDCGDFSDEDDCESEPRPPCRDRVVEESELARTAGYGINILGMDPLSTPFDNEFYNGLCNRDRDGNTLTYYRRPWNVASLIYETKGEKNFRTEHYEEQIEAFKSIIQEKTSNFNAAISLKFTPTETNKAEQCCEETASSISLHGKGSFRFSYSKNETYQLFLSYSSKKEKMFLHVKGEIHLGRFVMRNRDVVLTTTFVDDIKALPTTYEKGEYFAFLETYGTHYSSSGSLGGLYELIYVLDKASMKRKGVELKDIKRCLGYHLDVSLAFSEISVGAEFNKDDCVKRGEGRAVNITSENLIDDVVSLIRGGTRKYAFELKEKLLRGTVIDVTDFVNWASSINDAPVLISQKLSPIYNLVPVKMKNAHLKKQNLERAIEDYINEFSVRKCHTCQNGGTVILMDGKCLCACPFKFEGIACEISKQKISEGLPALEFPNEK

| Molecule | reduction of release of hemoglobin from sheep erythrocytes carrying C5b-8 after addition of C9, relative to media from pGFP-transfected cells (C9) [%] | further results |
| --- | --- | --- |
| sCD59 (soluble CD59, positive control) (from UniProt P13987 26-102) | – | reduction in lysis of sheep erythrocytes carrying C5b-8 after addition of C9, compared to GFP media containing C9 (C9): 21% |
| B1 | 34.8 | – |
| B2 | 29.9 | – |
| B3 | – | reduction in C3b α′ chain signal intensity in the presence of Factor I, relative to media from pGFP transfected cells (quantitative western blot) (C3b): 34.3% |
